Measured values as given in PMC12137140, “The fast-evolving FIKK kinase family of Plasmodium falciparum can be inhibited by a single compound” (Nature Microbiology, 2025).
Where no end group is shown, it is not given here. [ ]: non-standard residue; d: D form.

These binders were tested against Bio-His-FIKK13 (Plasmodium falciparum 3D7) (assay: SPR; single-cycle kinetics, Biacore S200, Biotin CAPture kit; Bio-His-FIKK13 immobilised (about 1,400 RU), peptides as analytes; 50 mM Tris pH 7.5, 250 mM NaCl, 2 mM DTT, 10 mM MgCl2, 1.5 µM ADP, 0.02% Tween, 0.1% DMSO; 25 °C; 100 s contact time).

Binder	koff	kon	Kd
YSFPVYRIWYRDCG (D-tyrosine at position 1; cyclised via a thioether bond between the N-terminus and the cysteine side chain; C-terminal amide) [FIKK13_2]	0.2 s⁻¹	1.4e+06 M⁻¹ s⁻¹	–
[dY]PLRFLSVKYHCG-NH2 (N-terminus assumed; SMILES CC(C)C[C@H](NC(=O)[C@H](Cc1ccccc1)NC(=O)[C@H](CCCNC(=N)N)NC(=O)[C@H](CC(C)C)NC(=O)[C@@H]1CCCN1C(=O)[C@H](N)Cc1ccc(O)cc1)C(=O)N[C@@H](CO)C(=O)N[C@H](C(=O)N[C@@H](CCCCN)C(=O)N[C@@H](Cc1ccc(O)cc1)C(=O)N[C@@H](Cc1c[nH]cn1)C(=O)N[C@@H](CS)C(=O)NCC(N)=O)C(C)C) [FIKK13_4_linear]	–	–	> 10 µM
YPFITSPRYCFML (D-tyrosine at position 1; cyclised via a thioether bond between the N-terminus and the cysteine side chain; C-terminal amide) [FIKK13_3]	0.029 s⁻¹	3.5e+06 M⁻¹ s⁻¹	–
[dY]SFPVYRIWYRDCG-NH2 (N-terminus assumed; SMILES CC[C@H](C)[C@H](NC(=O)[C@H](CCCNC(=N)N)NC(=O)[C@H](Cc1ccc(O)cc1)NC(=O)[C@@H](NC(=O)[C@@H]1CCCN1C(=O)[C@H](Cc1ccccc1)NC(=O)[C@H](CO)NC(=O)[C@H](N)Cc1ccc(O)cc1)C(C)C)C(=O)N[C@@H](Cc1c[nH]c2ccccc12)C(=O)N[C@@H](Cc1ccc(O)cc1)C(=O)N[C@@H](CCCNC(=N)N)C(=O)N[C@@H](CC(=O)O)C(=O)N[C@@H](CS)C(=O)NCC(N)=O) [FIKK13_2_linear]	–	–	> 10 µM
YRIFRIWWERCG (D-tyrosine at position 1; cyclised via a thioether bond between the N-terminus and the cysteine side chain; C-terminal amide) [FIKK13_5]	0.07 s⁻¹	1.9e+06 M⁻¹ s⁻¹	–
YIVSVVCWSD (D-tyrosine at position 1; cyclised via a thioether bond between the N-terminus and the cysteine side chain; C-terminal amide) [FIKK13_6]	–	–	> 10 µM
YRLVFGCG (D-tyrosine at position 1; cyclised via a thioether bond between the N-terminus and the cysteine side chain; C-terminal amide) [FIKK13_1]	–	–	> 10 µM
YPLRFLSVKAHCG (D-tyrosine at position 1; cyclised via a thioether bond between the N-terminus and the cysteine side chain; C-terminal amide) [FIKK13_4_Y10A]	–	–	> 10 µM
